Measured values as given in paper PMC3398536.

Assays:
Assay in all cases: native gel or EMSA
[1] = molecular target: AcK-pro-PanD variant with acetyl-lysine at position 9 (S. enterica)
[2] = molecular target: AcK-pro-PanD variant with acetyl-lysine at position 14 (S. enterica)
[3] = molecular target: AcK-pro-PanD variant with acetyl-lysine at position 53 (S. enterica)
[4] = molecular target: AcK-pro-PanD variant with acetyl-lysine at position 104 (S. enterica)
[5] = molecular target: AcK-pro-PanD variant with acetyl-lysine at position 115 (S. enterica)
[6] = molecular target: AcK-pro-PanD variant with acetyl-lysine at position 119 (S. enterica)
[7] = molecular target: pro-PanD (wild type), made from a plasmid in S. enterica ΔpanM (S. enterica)

With “AcK-pro-PanD variant with acetyl-lysine at position 9 (natural protein)” as the substance, how does the stoichiometry N [1] read?
Its stoichiometry N is 4.

“AcK-pro-PanD variant with acetyl-lysine at position 14 (natural protein)” was tested. Which stoichiometry N [2] did it give?
The stoichiometry N was 4.

For “AcK-pro-PanD variant with acetyl-lysine at position 53 (natural protein)”, which stoichiometry N [3] is on record?
The stoichiometry N was 4.

With “AcK-pro-PanD variant with acetyl-lysine at position 104 (natural protein)” as the substance, how does the stoichiometry N [4] read?
The stoichiometry N was 4.

With “AcK-pro-PanD variant with acetyl-lysine at position 115 (natural protein)” as the substance, how does the stoichiometry N [5] read?
Its stoichiometry N is 4.

For “AcK-pro-PanD variant with acetyl-lysine at position 119 (natural protein)”, which stoichiometry N [6] is on record?
The stoichiometry N was 4.

With “pro-PanD (wild type), made from a plasmid in S. enterica ΔpanM (natural protein)” as the substance, how does the stoichiometry N [7] read?
Its stoichiometry N is 4.
